Test results as given in paper PMC9482650, “Quantitative fragmentomics allow affinity mapping of interactomes” (Nature Communications, 2022).

T1: APBA2_2, Q99767
T1 sequence (Q99767 654-744, limits assumed, looked up): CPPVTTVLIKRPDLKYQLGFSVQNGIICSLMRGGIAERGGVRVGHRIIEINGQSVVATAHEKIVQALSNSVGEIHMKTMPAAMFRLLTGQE

T2: DLG3_1, Q92796
T2 sequence (Q92796 125-227, limits assumed, looked up): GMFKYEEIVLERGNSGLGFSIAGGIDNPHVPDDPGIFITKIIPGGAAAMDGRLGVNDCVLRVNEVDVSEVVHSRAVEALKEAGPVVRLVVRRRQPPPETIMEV

T3: SNTA1, Q13424
T3 sequence (Q13424 82-180, limits assumed, looked up): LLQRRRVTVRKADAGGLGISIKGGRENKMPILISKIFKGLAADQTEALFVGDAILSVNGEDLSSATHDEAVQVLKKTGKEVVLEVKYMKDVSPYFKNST

T4: SNTB1, Q13884
T4 sequence (Q13884 107-205, limits assumed, looked up): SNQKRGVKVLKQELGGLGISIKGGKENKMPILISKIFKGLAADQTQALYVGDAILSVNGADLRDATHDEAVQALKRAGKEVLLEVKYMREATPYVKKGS

T5: SIPA1L2, Q9P2F8
T5 sequence (Q9P2F8 945-1036, limits assumed, looked up): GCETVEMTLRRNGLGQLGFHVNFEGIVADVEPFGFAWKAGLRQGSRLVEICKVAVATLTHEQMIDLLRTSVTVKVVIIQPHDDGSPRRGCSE

T6: TJP3_3, O95049
T6 sequence (O95049 375-456, limits assumed, looked up): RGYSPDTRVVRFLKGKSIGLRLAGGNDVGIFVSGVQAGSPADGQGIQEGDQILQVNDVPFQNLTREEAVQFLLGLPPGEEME

T7: GRIP1_5, Q9Y3R0
T7 sequence (Q9Y3R0 568-668, limits assumed, looked up): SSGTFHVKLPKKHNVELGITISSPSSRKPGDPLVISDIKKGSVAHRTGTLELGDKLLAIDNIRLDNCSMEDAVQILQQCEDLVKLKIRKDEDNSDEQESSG

T8: APBA3_1, O96018
T8 sequence (O96018 389-490, limits assumed, looked up): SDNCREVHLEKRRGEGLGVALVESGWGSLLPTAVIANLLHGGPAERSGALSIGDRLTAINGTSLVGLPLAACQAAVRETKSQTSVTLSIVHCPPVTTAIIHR

T9: CARD11, Q9BXL7
T9 sequence (Q9BXL7 662-765, limits assumed, looked up): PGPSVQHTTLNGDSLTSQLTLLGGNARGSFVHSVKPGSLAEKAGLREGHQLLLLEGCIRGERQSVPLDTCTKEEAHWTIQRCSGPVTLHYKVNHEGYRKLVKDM

T10: PDZD7_3, Q9H5P4
T10 sequence (Q9H5P4 857-944, limits assumed, looked up): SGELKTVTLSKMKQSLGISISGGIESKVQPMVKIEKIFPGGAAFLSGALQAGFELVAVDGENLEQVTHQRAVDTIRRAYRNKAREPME

T11: DVL3, Q92997
T11 sequence (Q92997 244-331, limits assumed, looked up): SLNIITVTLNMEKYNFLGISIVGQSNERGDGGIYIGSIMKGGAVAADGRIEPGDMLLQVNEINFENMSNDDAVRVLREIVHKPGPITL

T12: SHANK1, Q9Y566
T12 sequence (Q9Y566 658-767, limits assumed, looked up): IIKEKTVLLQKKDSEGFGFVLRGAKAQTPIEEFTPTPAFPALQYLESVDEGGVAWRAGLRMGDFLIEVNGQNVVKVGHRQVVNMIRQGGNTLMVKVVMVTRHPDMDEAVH

T13: SYNJ2BP, P57105
T13 sequence (P57105 8-110, limits assumed, looked up): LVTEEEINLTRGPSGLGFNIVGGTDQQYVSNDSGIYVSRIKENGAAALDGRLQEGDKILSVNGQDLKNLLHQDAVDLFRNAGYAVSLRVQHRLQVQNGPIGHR


Tests used:
Assay in all cases: holdup assay
Set-up in all cases: key: below the threshold = too weak to quantify, mostly under pKd 3.1 to 4
Conditions in all cases: plain residues with an end cap or a label only (N-terminal biotin on a linker: ado-ado)
[1] = molecular target: DLG1_1, Q12959
[2] = molecular target: T1, APBA2_2, Q99767
[3] = molecular target: HTRA1, Q92743
Sequence of HTRA1, Q92743 (Q92743 360-477): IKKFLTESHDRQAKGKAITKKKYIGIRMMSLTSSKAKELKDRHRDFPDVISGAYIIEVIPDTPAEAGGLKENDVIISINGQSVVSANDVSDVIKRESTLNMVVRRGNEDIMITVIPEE

[4] = molecular target: T2, DLG3_1, Q92796
[5] = molecular target: MAST1, Q9Y2H9
Sequence of MAST1, Q9Y2H9 (Q9Y2H9 962-1065): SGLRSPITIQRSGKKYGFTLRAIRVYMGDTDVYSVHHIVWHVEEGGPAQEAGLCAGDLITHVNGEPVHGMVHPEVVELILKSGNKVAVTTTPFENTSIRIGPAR

[6] = molecular target: SCRIB_2, Q14160
Sequence of SCRIB_2, Q14160 (Q14160 857-960): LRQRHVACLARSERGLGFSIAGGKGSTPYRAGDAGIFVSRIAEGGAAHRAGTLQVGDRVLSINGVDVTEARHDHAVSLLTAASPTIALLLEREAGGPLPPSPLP

[7] = molecular target: T3, SNTA1, Q13424
[8] = molecular target: Inadl_6, Q8NI35
Sequence of Inadl_6, Q8NI35 (Q8NI35 1058-1167): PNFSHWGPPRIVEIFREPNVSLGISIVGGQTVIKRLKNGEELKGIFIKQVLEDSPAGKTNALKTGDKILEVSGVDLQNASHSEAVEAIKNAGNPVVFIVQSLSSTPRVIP

[9] = molecular target: T4, SNTB1, Q13884
[10] = molecular target: T5, SIPA1L2, Q9P2F8
[11] = molecular target: GRID2IP_2, A4D2P6
Sequence of GRID2IP_2, A4D2P6 (A4D2P6 272-370): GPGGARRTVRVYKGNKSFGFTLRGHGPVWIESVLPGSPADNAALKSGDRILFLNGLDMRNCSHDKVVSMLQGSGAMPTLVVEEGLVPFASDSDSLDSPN

[12] = molecular target: T6, TJP3_3, O95049
[13] = molecular target: MAGI2_6, Q86UL8
Sequence of MAGI2_6, Q86UL8 (Q86UL8 1141-1229): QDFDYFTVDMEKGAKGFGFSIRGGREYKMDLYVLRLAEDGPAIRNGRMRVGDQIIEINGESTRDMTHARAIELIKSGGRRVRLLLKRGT

[14] = molecular target: DLG5_1, Q8TDM6
Sequence of DLG5_1, Q8TDM6 (Q8TDM6 617-713): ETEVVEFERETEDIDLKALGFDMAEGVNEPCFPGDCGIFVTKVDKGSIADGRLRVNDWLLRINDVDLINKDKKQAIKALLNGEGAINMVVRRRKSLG

[15] = molecular target: MAGI2_5, Q86UL8
Sequence of MAGI2_5, Q86UL8 (Q86UL8 915-1017): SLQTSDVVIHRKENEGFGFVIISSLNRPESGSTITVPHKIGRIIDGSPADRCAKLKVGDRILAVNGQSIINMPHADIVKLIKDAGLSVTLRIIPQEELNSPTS

[16] = molecular target: Inadl_4, Q8NI35
Sequence of Inadl_4, Q8NI35 (Q8NI35 547-651): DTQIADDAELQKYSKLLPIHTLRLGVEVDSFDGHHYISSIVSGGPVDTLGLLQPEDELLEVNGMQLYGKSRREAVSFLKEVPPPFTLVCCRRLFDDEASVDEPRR

[17] = molecular target: GRIP2_4, Q9C0E4
Sequence of GRIP2_4, Q9C0E4 (Q9C0E4 446-548): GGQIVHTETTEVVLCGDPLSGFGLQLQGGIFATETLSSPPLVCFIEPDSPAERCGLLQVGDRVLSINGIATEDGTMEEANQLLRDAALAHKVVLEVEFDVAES

[18] = molecular target: T7, GRIP1_5, Q9Y3R0
[19] = molecular target: T8, APBA3_1, O96018
[20] = molecular target: T9, CARD11, Q9BXL7
[21] = molecular target: PDLIM1, O00151
Sequence of PDLIM1, O00151 (O00151 1-87): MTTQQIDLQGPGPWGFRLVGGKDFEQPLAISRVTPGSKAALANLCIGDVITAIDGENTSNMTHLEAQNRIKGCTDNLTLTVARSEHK

[22] = molecular target: T10, PDZD7_3, Q9H5P4
[23] = molecular target: T11, DVL3, Q92997
[24] = molecular target: T12, SHANK1, Q9Y566
[25] = molecular target: T13, SYNJ2BP, P57105

Binder	pKd [1]	pKd [2]	pKd [3]	pKd [4]	pKd [5]	pKd [6]	pKd [7]	pKd [8]	pKd [9]	pKd [10]	pKd [11]	pKd [12]	pKd [13]	pKd [14]	pKd [15]	pKd [16]	pKd [17]	pKd [18]	pKd [19]	pKd [20]	further results
EVNETDDTKM [KCNJ1, P48048]	below the threshold	below the threshold	below the threshold	below the threshold	4.46	3.83	below the threshold	3.54	below the threshold	below the threshold	below the threshold	below the threshold	3.56	below the threshold	4.04	below the threshold	below the threshold	below the threshold	below the threshold	below the threshold	pKd [21]: below the threshold; pKd [22]: 4.38; pKd [23]: below the threshold; pKd [24]: 3.73; pKd [25]: 4.39
GQEEQVTTRL [TRPC5, Q9UL62]	below the threshold	below the threshold	3.92	below the threshold	4.8	below the threshold	3.91	3.79	4.04	below the threshold	4.44	below the threshold	3.59	below the threshold	3.54	below the threshold	below the threshold	below the threshold	below the threshold	below the threshold	pKd [21]: below the threshold; pKd [22]: 4.89; pKd [23]: below the threshold; pKd [24]: 5.61; pKd [25]: below the threshold
SKENVQETQI [LRRC4B, Q9NT99]	4.23	below the threshold	below the threshold	3.73	3.97	4.27	4.77	3.71	5.07	below the threshold	3.86	below the threshold	3.92	below the threshold	4.13	below the threshold	below the threshold	below the threshold	below the threshold	below the threshold	pKd [21]: below the threshold; pKd [22]: 5.39; pKd [23]: below the threshold; pKd [24]: 3.98; pKd [25]: 4.6

Second part, led by results:

pKd [1]	pKd [2]	pKd [3]	pKd [4]	pKd [5]	pKd [6]	pKd [7]	pKd [8]	pKd [9]	pKd [10]	pKd [11]	pKd [12]	pKd [13]	pKd [14]	pKd [15]	pKd [16]	pKd [17]	pKd [18]	pKd [19]	pKd [20]	Binder	further results
below the threshold	below the threshold	below the threshold	below the threshold	4.73	below the threshold	4.9	4.22	5.22	below the threshold	4.26	below the threshold	3.88	below the threshold	below the threshold	below the threshold	below the threshold	below the threshold	below the threshold	below the threshold	NLSIEKETKL [ASNSD1, Q9NWL6]	pKd [21]: below the threshold; pKd [22]: 4.68; pKd [23]: below the threshold; pKd [24]: 4.52; pKd [25]: 3.85
below the threshold	below the threshold	below the threshold	below the threshold	4.33	below the threshold	below the threshold	below the threshold	below the threshold	below the threshold	below the threshold	below the threshold	below the threshold	below the threshold	below the threshold	below the threshold	below the threshold	below the threshold	below the threshold	below the threshold	QPCFNKLFPL [LPXN, O60711]	pKd [21]: below the threshold; pKd [22]: below the threshold; pKd [23]: below the threshold; pKd [24]: below the threshold; pKd [25]: below the threshold
below the threshold	3.47	below the threshold	below the threshold	4.18	4.06	3.59	below the threshold	4.05	below the threshold	below the threshold	below the threshold	5.05	below the threshold	below the threshold	below the threshold	below the threshold	below the threshold	below the threshold	below the threshold	SSALYGESDL [ACTN2, P35609]	pKd [21]: 4.75; pKd [22]: below the threshold; pKd [23]: below the threshold; pKd [24]: 3.91; pKd [25]: 3.87
